Here are results for 5 molecules from article PMC11893383 (Frontiers in Immunology, 2025).

In experiment [1] the target is T1, SARS-CoV-2 Omicron B.1.1.529 receptor-binding domain (RBD), His-tagged (SARS-CoV-2 Omicron B.1.1.529 (BA.1), strain).
T1 construct: also called B.1.1.529 RBD; RBD Omicron B.1.1.529
The experiment can be described thus: BLI. Particulars: both partners purified.

Experiment [2] deals with T2, SARS-CoV-2 wild-type (WT) spike trimer (SARS-CoV-2, wild type (Wuhan-Hu-1 …, UniProt P0DTC2)).
T2 construct: also called spike protein
The experiment can be described thus: ELISA. The following applies: both partners purified. For orientation: An ELISA detects its analyte on a solid surface through an enzyme-linked reagent.

Broadly, the Kd is the equilibrium constant for the complex coming apart. Lower therefore signals a tighter complex.

B1: AB5-18 (antibody, V domains shown)
VH: EVQLVESGGGLVQPGGSLRLSCAASGITVTSNYMTWVRQAPGKGLEWVSLIYAGGSTFYADSVKGRFTVSRDKSKNTLYLQMNSLRGEDTAVYYCARDLQEAGGMDVWGQGTTVTVSS
VL: ENVLTQSPGTLSLSPGERATLSCRASQFVSSTFLAWYQQKPGQAPRLLMYGASNRATDIPDRFSGGGSGTDFTLTISRLEPEDFAVYYCQQFGSSPFTFGQGTKLEIK
B1: the Kd in experiment [1] amounted to 3.4 nM.

B2: AB5-20 (antibody, V domains shown)
VH: QVQLVESGGGVVQPGRSLRLSCTASGFTFRHYGLHWVRQAPGKGLEWVAVILYDGSDEDYRDSVKGRFTISRDNSKNTLYLQMNSLRPEDTAVYYCAKQSGPYCSGGNCYSGHFDYWGQGTPVSVSS
VL: DIQMTQSPSSLSASVGDRVTITCQASQDISKSLSWYEQKPGKAPRLLIFEASNLETGVPSRFSGSGSGTSFSFTISSLQPEDFATYYCQQYDNVPLTFGGGTKVERK
Regarding B2, the binding result in experiment [2] is “binds”.

B3: AB6-17 (antibody, V domains shown)
VH: QLQLQESGPGLVESSETLSLTCTVSSGSISRSTYYWGWIRQPPGKGMEWIGSISSGGSTYYNPSLNSRVTISIDTSKNQFSLKLRSVTAADTAVYYCARALQWPSPRIDYWAQGTLVTVSS
VL: DIQMTQSPSSLSASVGDRVTITCRASQSISSYLNWYQHKPGKAPKLLIYAASSLESGVPSRFTGSGSGTDFTLTIDSLQPEDFATYYCQQSYSTPLFTFGPGTTVDIK
For B3, the binding result in experiment [2] is given as “binds”.

B4: AB5-21 (antibody, V domains shown)
VH: EVQLVESGGGLVQPGGSLRLSCAASGLIVSSNYMHWVRQAPGEGLEWVSVIYSGGSTFYADSVKGRFTISRDNSKNTLYLQMNSLRAEDTAVYYCARGLGDPMDVWGQGTTVTVSS
VL: DIQLTQSPSFLSASVGDRVTITCRASQGISSDLAWYQQKPGKAPKLLINAASTLQNGVPSRFSGSGSGTEFTLSISSLQPEDFATYYCQQLNSYPPKLTFGGGTKVEIK
Regarding B4, binding in experiment [1] was put at a Kd of 30 nM.

B5: AB5-16 (antibody, V domains shown)
VH: QALMVQSEAAVKKPGASVKVSCKATGDAFSNHYLHWLRQAPGQGLEWLGIINPGAGSTTYAQKFQGRLTVTTDTSTNTVYMELSSLRSDDTAVYYCARDGAFIPSSYYYGMDVWGQGTTVTVSS
VL: EIVLTQSPGTLALSPGERATLSCRASQSVSSSYLAWYQQKPGQAPRLLIYGASSRATGVPDRFSGSGSGTDFTLTVSSLEPEDFAVYYCQQREAFGQGTKVEVK
As for B5, the binding result in experiment [2] is “binds”.
